According to US20250152746A1, “BASE EDITING OF ANGPTL3 AND METHODS OF USING SAME FOR TREATMENT OF DISEASE” (Verve Therapeutics, Inc., priority 2020, published 2025):
In the oligonucleotide strings, read from the 5' end, every base follows the letter of its sugar. An asterisk marks phosphorothioate; unmarked linkages are phosphodiester. Other units and linkages are bracketed, terminal groups are in braces. A string of capitals states the bases alone. m = 2'-O-methyl; r = 2'-OH (RNA)

B1: GA227: PCSK9 gRNA; protospacer GTCCCGGAAGTTGCCGGCAG (SEQ ID NO: 221) (nucleic acid)
guide: GUCCCGGAAGUUGCCGGCAGGUUUUAGAGCUAGAAAUAGCAAGUUAAAAUAAGGCUAGUCCGUUAUCAACUUGAAAAAGUGGCACCGAGUCGGUGCUUUU
modifications: sugars from the 5' end m3 r94 m3, linkages s3 o93 s3 (s phosphorothioate, o phosphodiester), T or U not given here
B2: GA239: PCSK9 gRNA; protospacer CCGCCTGCCAGCGCCTGGCG (SEQ ID NO: 232) (nucleic acid)
guide: CCGCCUGCCAGCGCCUGGCGGUUUUAGAGCUAGAAAUAGCAAGUUAAAAUAAGGCUAGUCCGUUAUCAACUUGAAAAAGUGGCACCGAGUCGGUGCUUUU
modifications: sugars from the 5' end m3 r94 m3, linkages s3 o93 s3 (s phosphorothioate, o phosphodiester), T or U not given here
B3: GA229: PCSK9 gRNA; protospacer GTCGTGCTGGTCACCGCTGC (SEQ ID NO: 223) (nucleic acid)
guide: GUCGUGCUGGUCACCGCUGCGUUUUAGAGCUAGAAAUAGCAAGUUAAAAUAAGGCUAGUCCGUUAUCAACUUGAAAAAGUGGCACCGAGUCGGUGCUUUU
modifications: sugars from the 5' end m3 r94 m3, linkages s3 o93 s3 (s phosphorothioate, o phosphodiester), T or U not given here
B4: GA240: PCSK9 gRNA; protospacer TGCCAGCGCCTGGCGAGGGC (SEQ ID NO: 233) (nucleic acid)
guide: UGCCAGCGCCUGGCGAGGGCGUUUUAGAGCUAGAAAUAGCAAGUUAAAAUAAGGCUAGUCCGUUAUCAACUUGAAAAAGUGGCACCGAGUCGGUGCUUUU
modifications: sugars from the 5' end m3 r94 m3, linkages s3 o93 s3 (s phosphorothioate, o phosphodiester), T or U not given here
B5: GA228: PCSK9 gRNA; protospacer CGGCTGTACCCACCCGCCAG (SEQ ID NO: 222) (nucleic acid)
guide: CGGCUGUACCCACCCGCCAGGUUUUAGAGCUAGAAAUAGCAAGUUAAAAUAAGGCUAGUCCGUUAUCAACUUGAAAAAGUGGCACCGAGUCGGUGCUUUU
modifications: sugars from the 5' end m3 r94 m3, linkages s3 o93 s3 (s phosphorothioate, o phosphodiester), T or U not given here
B6: GA161: PCSK9 gRNA; protospacer GGACGAGGACGGCGACTACG (SEQ ID NO: 155) (nucleic acid)
guide: mG*mG*mA*rCrGrArGrGrArCrGrGrCrGrArCrUrArCrGrGrUrUrUrUrArGrArGrCrUrArGrArArArUrArGrCrArArGrUrUrArArArArUrArArGrGrCrUrArGrUrCrCrGrUrUrArUrCrArArCrUrUrGrArArArArArGrUrGrGrCrArCrCrGrArGrUrCrGrGrUrGrCrU*mU*mU*mU
B7: GA241: PCSK9 gRNA; protospacer TGCTGCTGCCCCTGGCGGGT (SEQ ID NO: 234) (nucleic acid)
guide: UGCUGCUGCCCCUGGCGGGUGUUUUAGAGCUAGAAAUAGCAAGUUAAAAUAAGGCUAGUCCGUUAUCAACUUGAAAAAGUGGCACCGAGUCGGUGCUUUU
modifications: sugars from the 5' end m3 r94 m3, linkages s3 o93 s3 (s phosphorothioate, o phosphodiester), T or U not given here
B8: GA236: PCSK9 gRNA; protospacer AGCCCTCGCCAGGCGCTGGC (SEQ ID NO: 229) (nucleic acid)
guide: AGCCCUCGCCAGGCGCUGGCGUUUUAGAGCUAGAAAUAGCAAGUUAAAAUAAGGCUAGUCCGUUAUCAACUUGAAAAAGUGGCACCGAGUCGGUGCUUUU
modifications: sugars from the 5' end m3 r94 m3, linkages s3 o93 s3 (s phosphorothioate, o phosphodiester), T or U not given here
B9: GA234: PCSK9 gRNA; protospacer CGCCTGCCAGCGCCTGGCGA (SEQ ID NO: 252) (nucleic acid)
guide: mC*mG*mC*rCrUrGrCrCrArGrCrGrCrCrUrGrGrCrGrArGrUrUrUrUrArGrArGrCrUrArGrArArArUrArGrCrArArGrUrUrArArArArUrArArGrGrCrUrArGrUrCrCrGrUrUrArUrCrArArCrUrUrGrArArArArArGrUrGrGrCrArCrCrGrArGrUrCrGrGrUrGrCrU*mU*mU*mU
B10: GA233: PCSK9 gRNA; protospacer GCGGCTGTACCCACCCGCCA (SEQ ID NO: 227) (nucleic acid)
guide: GCGGCUGUACCCACCCGCCAGUUUUAGAGCUAGAAAUAGCAAGUUAAAAUAAGGCUAGUCCGUUAUCAACUUGAAAAAGUGGCACCGAGUCGGUGCUUUU
modifications: sugars from the 5' end m3 r94 m3, linkages s3 o93 s3 (s phosphorothioate, o phosphodiester), T or U not given here
B11: GA224: PCSK9 gRNA; protospacer GGCCGCTGACCACCCCTGCC (SEQ ID NO: 218) (nucleic acid)
guide: GGCCGCUGACCACCCCUGCCGUUUUAGAGCUAGAAAUAGCAAGUUAAAAUAAGGCUAGUCCGUUAUCAACUUGAAAAAGUGGCACCGAGUCGGUGCUUUU
modifications: sugars from the 5' end m3 r94 m3, linkages s3 o93 s3 (s phosphorothioate, o phosphodiester), T or U not given here
B12: GA225: PCSK9 gRNA; protospacer GGCATCGTCCCGGAAGTTGC (SEQ ID NO: 219) (nucleic acid)
guide: GGCAUCGUCCCGGAAGUUGCGUUUUAGAGCUAGAAAUAGCAAGUUAAAAUAAGGCUAGUCCGUUAUCAACUUGAAAAAGUGGCACCGAGUCGGUGCUUUU
modifications: sugars from the 5' end m3 r94 m3, linkages s3 o93 s3 (s phosphorothioate, o phosphodiester), T or U not given here
B13: GA237: PCSK9 gRNA; protospacer CAACGCCGCCTGCCAGCGCC (SEQ ID NO: 230) (nucleic acid)
guide: CAACGCCGCCUGCCAGCGCCGUUUUAGAGCUAGAAAUAGCAAGUUAAAAUAAGGCUAGUCCGUUAUCAACUUGAAAAAGUGGCACCGAGUCGGUGCUUUU
modifications: sugars from the 5' end m3 r94 m3, linkages s3 o93 s3 (s phosphorothioate, o phosphodiester), T or U not given here
B14: GA230: PCSK9 gRNA; protospacer AGTAGAGGCAGGCATCGTCC (SEQ ID NO: 224) (nucleic acid)
guide: AGUAGAGGCAGGCAUCGUCCGUUUUAGAGCUAGAAAUAGCAAGUUAAAAUAAGGCUAGUCCGUUAUCAACUUGAAAAAGUGGCACCGAGUCGGUGCUUUU
modifications: sugars from the 5' end m3 r94 m3, linkages s3 o93 s3 (s phosphorothioate, o phosphodiester), T or U not given here

test system: PCSK9 gene; test: PCSK9 gRNA/SpCas9 editing in primary human hepatocytes (Tables 2, 4); assay type: cell-based; conditions: 100 ng/RNA/mL; SpCas9 mRNA MS002 1:1 by weight
Procedure, shortened: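 Editing at the PCSK9 site quantified by NGS of PCR amplicons from genomic DNA. Input: SpCas9 mRNA with gRNA, 1:1 by weight, transfected into primary human hepatocytes at 2500, 500 or 100 ng RNA/mL (tracr-modified guides at 2500, 1250, 500, 250 ng/mL).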

| Molecule | Human Primary Hepatocyte Editing % 100 |
| --- | --- |
| B1 | 0.02% |
| B2 | 0.06% |
| B3 | 0.47% |
| B4 | 1.05% |
| B5 | 5.9% |
| B6 | 3.65% |
| B7 | 0.61% |
| B8 | 6.92% |
| B9 | 0.06% |
| B10 | 3.08% |
| B11 | 1.01% |
| B12 | 0.89% |
| B13 | 4.53% |

same assay, conditions: 500 ng/RNA/mL; SpCas9 mRNA MS002 1:1 by weight

| Molecule | Human Primary Hepatocyte Editing % 500 |
| --- | --- |
| B1 | 8.29% |
| B2 | 1.73% |
| B3 | 6.85% |
| B4 | 0.24% |
| B5 | 10.96% |
| B6 | 8.74% |
| B7 | 1.49% |
| B8 | 3.13% |
| B9 | 2.29% |
| B14 | 12.83% |
| B10 | 5.39% |
| B11 | 2.19% |
| B12 | 6.39% |
| B13 | 15.83% |

same assay, conditions: 2500 ng/RNA/mL; SpCas9 mRNA MS002 1:1 by weight

| Molecule | Human Primary Hepatocyte Editing % 2500 |
| --- | --- |
| B1 | 32.09% |
| B2 | 3.49% |
| B3 | 30.41% |
| B4 | 7.94% |
| B5 | 37.1% |
| B6 | 35.08% |
| B7 | 5.39% |
| B8 | 22.41% |
| B9 | 5.45% |
| B14 | 29.31% |
| B10 | 19.97% |
| B11 | 13.02% |
| B12 | 18.82% |
| B13 | 36.78% |

test system: PCSK9 gene; test: PCSK9 gRNA/SpCas9 editing in primary cynomolgus hepatocytes (Tables 2, 22); assay type: cell-based, cynomolgus monkey; conditions: 100 ng/RNA/mL; SpCas9 mRNA MS002 1:1 by weight

| Molecule | Cyno Primary Hepatocyte Editing % 100 |
| --- | --- |
| B1 | 0.56% |
| B2 | 0.02% |
| B3 | 0.75% |
| B4 | 0.52% |
| B5 | 1.95% |
| B6 | 4.52% |
| B7 | 0.97% |
| B8 | 2.31% |
| B9 | 0.21% |
| B10 | 2.38% |
| B11 | 2.61% |
| B12 | 2.03% |
| B13 | 2.17% |

same assay, conditions: 500 ng/RNA/mL; SpCas9 mRNA MS002 1:1 by weight

| Molecule | Cyno Primary Hepatocyte Editing % 500 |
| --- | --- |
| B1 | 4.58% |
| B2 | 0.55% |
| B3 | 5.39% |
| B4 | 1.9% |
| B5 | 7.89% |
| B6 | 14.98% |
| B7 | 2.94% |
| B8 | 11.62% |
| B9 | 1.53% |
| B10 | 10.84% |
| B11 | 12.34% |
| B12 | 3.11% |
| B13 | 13.46% |

same assay, conditions: 2500 ng/RNA/mL; SpCas9 mRNA MS002 1:1 by weight

| Molecule | Cyno Primary Hepatocyte Editing % 2500 |
| --- | --- |
| B1 | 32.41% |
| B2 | 4.55% |
| B3 | 34.28% |
| B4 | 10.62% |
| B5 | 31.36% |
| B6 | 48.24% |
| B7 | 16.11% |
| B8 | 37.44% |
| B9 | 6.44% |
| B14 | 35.86% |
| B10 | 37.8% |
| B11 | 47.5% |
| B12 | 8.57% |
| B13 | 46.01% |
